How the values were obtained:
CD32b(Y163) = CD32b(Y163) (UniProt P31994); assay: SPR
FcRn (human) = FcRn (human) (UniProt P55899); assay: SPR; pH 6.0
FcRn (human), sequence (P55899 24-297): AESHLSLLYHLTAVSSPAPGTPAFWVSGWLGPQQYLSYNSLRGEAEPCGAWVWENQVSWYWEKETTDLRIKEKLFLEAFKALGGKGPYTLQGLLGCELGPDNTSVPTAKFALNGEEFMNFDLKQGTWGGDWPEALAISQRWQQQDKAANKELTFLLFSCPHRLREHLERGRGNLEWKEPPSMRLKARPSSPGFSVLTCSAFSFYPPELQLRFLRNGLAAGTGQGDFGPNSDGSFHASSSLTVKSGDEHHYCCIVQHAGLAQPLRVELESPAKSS

CD32b(Y163), sequence (P31994 43-217): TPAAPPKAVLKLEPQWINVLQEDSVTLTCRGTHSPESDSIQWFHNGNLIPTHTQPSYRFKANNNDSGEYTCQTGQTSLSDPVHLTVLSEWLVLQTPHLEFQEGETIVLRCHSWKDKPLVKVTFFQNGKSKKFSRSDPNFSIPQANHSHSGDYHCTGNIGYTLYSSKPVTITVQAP

Kd (CD32b(Y163)): 1.7 µM
Kd (FcRn (human)): 3.7 µM
Substance: Herceptin WT
